From PMC2955587, “Novel β-N-acetylglucosaminidases from Vibrio harveyi 650: Cloning, expression, enzymatic properties, and subsite identification” (BMC Biochemistry, 2010)

Key:
[1] = test system: CC(=O)N[C@H]1[C@H](Oc2ccc([N+](=O)[O-])cc2)O[C@H](CO)[C@@H](O)[C@@H]1O; test: purified protein; settings: 0.1 M phosphate pH 7.0, 37°C, 0-500 μM substrate, enzyme unstable
Excerpt: initial rates, reducing sugar (DNS) assay, nonlinear regression on VhNag1

[2] = substrate: CC(=O)N[C@H]1[C@H](Oc2ccc([N+](=O)[O-])cc2)O[C@H](CO)[C@@H](O)[C@@H]1O; test: initial rates, reducing sugar (DNS) assay, nonlinear regression; format: biochemical, Vibrio harveyi; settings: 0.1 M phosphate pH 7.0, 37°C, 0-500 μM substrate
Excerpt: initial rates, reducing sugar (DNS) assay, nonlinear regression on VhNag2

| Molecule | Km [1] [µM] | kcat [1] [s⁻¹] | kcat/Km [1] [M⁻¹ s⁻¹] | Km [2] [µM] | kcat [2] [s⁻¹] | kcat/Km [2] [M⁻¹ s⁻¹] |
| --- | --- | --- | --- | --- | --- | --- |
| VhNag1 (Vibrio harveyi) | 172 ± 48 | 0.08 | 465 | – | – | – |
| VhNag2 (Vibrio harveyi) (protein, full-length, 1,926 bp, 73,143 Da, C-terminal His6 (pQE60), E. coli M15, Ni-NTA; no signal peptide predicted) EYRVDLVVLSEQKQNCRFGLTFHNLSDQDLNSWGLTFAFDRYILPDSVSNGQLTQIGSFCTLKPEGIVLAANHHYYCEFSIGSNPFRYYSDGFNEAMIDFVVDGQPQRAQVDVTPIVLASPYRERSDIPASLTHAQPLLPKPNHIEVSDHSFTFDEQAGVAIYTDLANSAKAWLLEELQRIHQFTLSSSNSGKIIFKSNPTLDEGAYKLKVSEESIKIEAGSSSGFTHACATLLQLLKRDEATKTMEAVCCSIIDSPRFRYRGMMLDCARHFHSVEQVKRLINLLAHYKLNTFHWHLTDDEGWRVEIKSLPQLTEIGAWRGIDETIEPQYTHLSQRYGGFYTQEEIRDVIAFAEQRGITIIPEIDVPGHCRAAIKSLPHLLIEAEDTTEYRSIQHYNDNVINPALPGSYEFIDKVLEEIAALFPAPYVHIGADEVPNGVWSKSPACQALMEQLGYTDYKELQGHFLRHAEDKLRKLGKRMLGWEEAQHGNKVSKDTVIYSWLSEEAALNCARQGFDVVLQPAQTTYLDMTQDYAPEEPGVDWANPLPLEKAYNYEPLAEVPADDPIRKRIWGIQTALWCEIINNPSRMDYMIFPRLTAMAEACWTEKQHRDWTDYLSRLKGHLPLLDLQGVNYRKPWK | – | – | – | 77 ± 17 | 0.38 | 4940 |
